In publication PMC7900914:

Molecular target: HLA-B*57:01–T3N (human | not stated | HIV-1)
Test: SPR

For “KIR3DL1*001 (similar construct, from insect cells) (from UniProt P43629 22-444) (receptor)”, which Kd is on record?
The Kd was 100 µM.
